Consider 21 sequences from a protein production outcome set (Wang et al. 2014).

The series can be described thus: label from the status in PepcDB records.
With “MWNKLNKSMMFCQMMFGLSFYGVMVILTRFFLEELNYSEADTMMVVGAFSSIGPLFAIAGGFIADKFLGAYRSLTISYFGFATGYALLVLGSYTTNVPMALCGIALASYGRGLMSPSYPSLYKRTFDTQEHFENCYPVNYSVNNVGALLGQYLFPMFVLVLGFHGSFLLSCVLALLAFATLVIFRKPLLTVGAHIDQKPVSMQNWISFLITSVAMIALVFFMFSNMDIGQNIVYGIGLAAIGYFVILMLKSKKSDALKMGTILIMTALTTAFFVYYGQMMTSMTMVTINTMRGDLFDLIPIAPEASMAMNPLWCIVAGPVIAMIFSALEKRDIHFSTATKIGFAFILTAIAFGILTMAVMGVGEDAIIRPEVFLLIHFFQAFAEVIVGSLVVAFILSVAPKHIEGFSVSLFSVAMALSGIIGAVFSTSIAQEKGHVITQEFVQTVYGSYFQLLTVLAVVMVAIAFIASFIIRKMLESSKQAEEVELKEQKA”, the protein production entry is given as “failed”. Consider “MNITLAVLQLEDIPQAKQFAIRTRQLLFPDVYQLALPYDLTHFQDVYLHDQKGACFVVKDQQHNIIGMIAYRAYNHRFALDIPKDSVEVVKLFIQPEYRRQGLASRLCEALFGYAAQQKIKYFYLHTHPFLPAAEYFWTKQGFDVIHREEIQNYDTIHMFKSA”, for which the protein production result was “failed”.

For the sequence “MNKVDEIEDFRFEDLEMETEKDKERMMTPTTRMSYSSSSSPSPSSASSSAASSLAAKAIRASSAHRDSSLSSAYSSPSSAPVPTPPKEVNKAYEYTSMKSLNEPKRGFWGSLASKAKAFLDEDDPNQLPQSPKRMEQSIPSATTSGTKEAGQTGRKSENPSLQRRLDAITSSLNYIGGTIGTVVEEGITAVENRTAGIIQETRKKIKKKPSLTRNQQNPEIQADLEIQLKASRDVAMAMAAKAKLLLRELKMVKSDLAFAKQRCAQLEEENKVLRENRSGDSQTDDDDLVRLQLETLLAEKARLAHENSIYTRENLYLRGVVEYHQLTMQDVVYFDEKTEEVTEVYPINVSSMSSSSDNSYNPNPSFLELK”, the protein production entry is listed as “failed”. Turning to “MAQREIRLVDNEYPSPSMTHPPIPLSDIALTGIFEISKILTSPARLEITLANVVNLLQSFLQMRNGVVSLLADDGVPDITVGVGWNEGSDNRYRARLPQKAIDQIVATAVPLVADNVSAHPMFTAADAMALGATDEIRVSFIGVPIRIDSRVVGTLSIDRVRDGRSHFRMDADVRFLTMVANLIGQTVKLHRVVARDRERLMAESHRLQKELS”, the protein production result is on record as “failed”. Consider “MVVVMNPEQIYGVSNIKSHIPVMLDIEESNYDAWRELFLTHCLSFDVMGHIDGTLLPTNANDVNWQKRDGIVKLSLYGTLTPKQFQGSFVTSSTSRDIWLRIKNQFRNNKDARALRLDSELRTKDIGDMRVADYYRKMKKLADSLRNVDVPVTDRNLVMYVLNGLNPKFDNIINVIKHRQPFPSFDDAATMLQEEEDRLKRAIKPNPTHVDHSSSSTVLACSEAPPVTNFQRSGGNQMGYRGRGRGNNIFRGRGGRFSYYNMPTFNSWNRPPFYQNSYQMWNHPWGYPPYVNTNGGNGLGLLGPRPAY”, for which the protein production entry is recorded as “failed”. The result for “SFRVVLDPGHGGIDGGARGVTGILEKDVTLAFARALRDELQKGSHTIVALTRDSDIFLRLSERVKKAQEFDADLFISIHADTIDVHSLRGATVYTISDEASDAIAKSLAESENKVDLLDGLPKEESLELTDILLDLTRRETHAFSINFANNVVSNLSKSHINLINNPHRYADFQVLKAPDVPSVLIEIGYLSNKEDEKLLNNPQWRKQMAASIAYSIRQFAEYRQKIMQPL” reads “not failed”. Turning to “MTYKITTSESKKEYLYMGSGDTRGESSLVAKPIEIILNKLPHAILAQQQFQKYITSPIYRYLSKLLLFREVAWPESTKDTQKGQVGIFSFQNNYADSATTFRILAHLDEHGYPLPNGAAEKNLPSLFEGFKATVSIIQQRLLLDNVDGATNSDKEKYVQLPDINTGFVNKTYSRIDLTHLLEDVETNVENLSINKTLEMDELTRLDSMINELESRKLKILERVKHIDSKSTNLENDVTLIKDRINFIEEYNLEADREQSLRKQMEEERSSEASSFTQNEEAISSLCDVESKDTRLKDFYKMPHEKSHDKNRQIISETYSRNTTAFRMTIPHGEHGNSITALDFDTPWGTLCSSSYQDRIVKVWDLNHGIQVGELPGHLATVNCMQIDKKNYNMLITGSKDATLKLWDLNLSREIYLDHSPLKEKTEEIVTPCIHNFELHKDEITALSFDSEALVSGSRDKKIFHWDLTTGKCIQQLDLIFTPTHSDIKMPARSLNNGACLLGTEAPMIGALQCYNSALATGTKDGIVRLWDLRVGKPVRLLEGHTDGITSLKFDSEKLVTGSMDNSVRIWDLRTSSILDVIAYDLPVSSLDFDGKLITVGANEGGVNVFNMERDEHWMTPEPPHSLDGDELSRRIAIVKYKDGFLINGHNDGDINVWTL”, the protein production entry was “failed”. With “MADHNNTPPFDLTKLDHYIKYQPREEAEDFFVHVEVKVLGKGSSPLEISFSTSVYEFVWEDEDCYELVELYEFFTEDAGIDAFEAQFLVNDLILYVNKTTRPLDEDFTGVFKLMAEVTLKPVQLNHAGSQKTESQQP”, the protein production entry is given as “failed”. “MKIITIEEHFESEVITNEINKVTGNLVSGQVSPEMFQYMQKELPSAMEMQDTEKRLAFMDQHGIDMQVLSYGNSSPQNLGPKISVALCKRANDELAKVIQQNPTRFAGFAVLPVGSPEDAAIELKRAVEELGFKGALVKGQFENKYFDNSFYYPIFEMAEKLDVPISFHPSFIPEPITEQYFASDAWSDVVTGVFSSAGFGWHMDVGIQVVRMILSGIFDKLPNLKIITGHLGEMVPMFLNRMDDTLGHWTTLERKISDYYRTNVYVTPSGLLYKNEWKFLLNELDENHLIYALDYPFVKTENAGTFLDTLDLTDEVKAKIAHENAEKLLHL”: the protein production result is “not failed”.

Take “MSGSSHYPVANWNLDGIVSGLRGARQEWRGPRGRLREESESGVREFPSQESLRDIMRQLFGALFPMRLGPIDLREEVEDFYVGHTIGAALDALLHQVCLELQHLGRDDPQPYGQVLERAVDIVRRFGAELPAVRKALDLDVTAAYQGDPAARSVDEVLLCYPGVTAMIHHRLANVLYRLGAPMLARIVAEIAHSDTGIDIHPGATIGRSFFIDHGTGVVIGETAIIGERVRLYQMVTLGAKRFPPGENGELKKGLPRHPIIEDDVVIYAGATILGRITIGQGSTIGGNVWLTHSVPPNSTVTQAGAINDMPDCGLGGLEHHHHHH”: the protein production result was “failed”. In the case of “MGCAEEKKTDVRWATFNIRYDNPQDSLNNWQYRKDRVCQFIKDHELDIVGMQEVLHNQFQDLRAGLPEYDGIGVGRDDGKTAGEYAPLFYRKDKYEVLDSNTFWLAENPDSVGMMGWDAVCVRIATWAKFKDKATGKIFMAVNTHFDHVGEEARRQSALLIIRKIKEIVGERPAVVTGDFNVTDASDAYETITTNEFVMKDAYKTAARVTGVDYTFHDFARIPAEDCEKIDFIFVTPQVLVKSCEIPAEVPEALLSDHNPQLADLELEHHHHHH”, the protein production entry is reported as “failed”.

Consider “MNPADVTQLAPAVSTDVSLLSLFWHAHWVVKSIMLGLLGCSVWVWAIAIDKLLLFSRTKRAMDRFEQAFWSGESIDELYRALSAKPTHSMAACFVAAMREWKRSFESHSRSFAGLQMRIEKVMNVSIAREVERLERRLLVLATVGSAGPFVGLFGTVWGIMSSFQSIAASKNTSLAVVAPGIAEALFATAIGLIAAIPATIFYNKFTSEVNRQTQRLEGFADEFSAILSRQIDERT”, for which the protein production result is given as “failed”.

As to “MGHHHHHHSHMGWDLTVKMLAGNEFQVSLSSSMSVSELKAQITQKIGVHAFQQRLAVHPSGVALQDRVPLASQGLGPGSTVLLVVDKSDEPLS”, the protein production result is listed as “failed”. As for “MATPAYMSITGTKQGLITAGAFTEDSVGNTYQEGHEDQVMVQGFNHEVIIPRDPQSGQPTGQRVHKPVVITKVFDKASPLLLAALTSGERLTKVEIQWYRTSAAGTQEHYYTTVLEDAIIVDIKDYMHNCQDPGNAHFTHLEDVHFTYRKITWTHEVSGTSGSDDWRSPVAG”, the protein production entry is listed as “not failed”. Consider “MHKTAFIWTDEYYNYSFPDYHPFKSLRESMTKRLLEERGAFHFITLVEPKSIPEEALQLVHSKEYIEFVKYKSKEGQGYLDDGDTPAFKGIYEAALIRVSGSVKALELIKSGEFNHTINIGGGFHHAKRNRAAGFCVFNDVALISKLGESFFSRIAIVDIDGHHADGTQELLIDDNNILKISLHMFHPNFFPGTGDVNEIGLGKGEGYTINIPLPPGTGDDGYLLAFDEIVVPAIERYKPELIILVAGGDSHFNDPLVELKLSTHGYLDVVTKIHRLVHEYSNGRLIMLGGGGYNYDATARIWTISIAEIAGIYDLEYETLHDSFSTKSSQFVMEKIRNTISLIKKIHSLN”, for which the protein production entry is “failed”. The result for “MMDGSTFYFVAWIGWIIVTFFMKKDPIRWKLGACILIFIICSPLHVTIASFVVSVNALLLCIISFIGITLYSVWKKLYSLLSALIIAMLYTSFHLLEIYDPIWIVVDRVFLLSSALVYASVLLHGDRILRLCSLYVGMLQAELLVTFIFSKLNFPYDYGSLAFFDIVAISTLFMAILFWIAKASVYMERFKRKTRKRKARVIHD” reads “failed”. Take “MKLNISAQSLNYTKYDNVIPSRDAILGLFDKVKSYLSYEQISHSSGLNDEPEKDALKKRLRAMERDGQLIFTRRKGYKRVDQSSLVTGKISIHVDGFGFLTYDDNEKDLFLPKHQLSHVFDGDIILVLKGHTQHQGRSNHRFIKIVERKTTHIVGLLKRKGSKLYLLPENSKLTQTIYVTPNELIAKNVGKLVHCKINTYPDYRQPTTVEVNEVLGRPGEAGIEVKLALRRHGINDKWDKDVLDAASAFGSQVEEKDKTSRVDYRDLPFVTIDGDDAKDFDDAVYGYQMDNGQWKLFVAIADVSHYVKPNDHLDLEAQSRATSVYFPGCVVPMLPESLSNGLCSLNPNEDRLVMVCEMTFDDEGNMLDSEFSEGIIHSHARLTYDDANRIIMQSSAKTTYQSNNPKNNIAQYLVNLHRLYLNLSGQRKVRGAIDFDTQELAFKLNNKKKIASIVPVVRNDAHRMIEEFMLCANVATAQFLELNKIPSLYRVHSGPQMKKLTSLRMLLAEKGLTLAGGDKPTSHDYNALLDQVRDLDECDIIRTLLLRSQSQAEYSPKNLGHFGLAYDAYAHFTSPIRRYPDLLIHRAIRAKLREKTTGKLRSLLMKLKPIRQLAGISNSYPYDTKEIEQLSVHCSHQSRQADEVSREVESALKCHYMKPFIGRNFMGSVSGVTHFGVFVELEENRIEGLIPLSSFQNGDFEFDAIKQKISSQTTTFTLGTQVNIIVKEIDSKQRKIIFNFA”: the protein production result is on record as “failed”. In the case of “MEGYSRNGEISPKLLDLMIPQERRNWFHDEKNSVFKTEEKKLELKLGPPGEEDDDESMIRHMKKEPKDKSILSLAGKYFSPSSTKTTSHKRTAPGPVVGWPPVRSFRKNLASGSSSKLGNDSTTSNGVTLKNQKCDAAAKTTEPKRQGGMFVKINMYGVPIGRKVDLSAHNSYEQLSFTVDKLFRGLLAAQRDFPSSIEDEKPITGLLDGNGEYTLTYEDNEGDKMLVGDVPWQMFVSSVKRLRVIKTSEISSALTYGNGKQEKMRR”, the protein production entry was “failed”. On to “GSGLDVKNLVDAIVTAEITPSQVRHDKQLNSVNTELSALGQLKSYLTNLQTSLAKLSSLSQFYTMKSTISDPNYFSATLGTGATKNTYQIEIQKLAQQHS”, for which the protein production entry is given as “failed”.

For the sequence “MKNVGDLMQRLQKMMPAHIKPAFKTGEELLAWQKEQGAIRSAALERENRAMKMQRTFNRSGIRPLHQNCSFENYRVECEGQMNALSKARQYVEEFDGNIASFIFSGKPGTGKNHLAAAICNELLLRGKSVLIITVADIMSAMKDTFRNSGTSEEQLLNDLSNVDLLVIDEIGVQTESKYEKVIINQIVDRRSSSKRPTGMLTNSNMEEMTKLLGERVMDRMRLGNSLWVIFNWDSYRSRVTGKEY”, the protein production result is recorded as “failed”. Consider “MIEDKFMRVLLMFDVPTKSKKEQKLASKFRNNLIKLGYFMLQFSVYMRICKGLSSAKSSIENVKKILPPYGNVRALIITEKQFDKMELLLGGIVFNEKVNNETNLTLFDIDSHGEFKYKNSNNEEIQINKKQEKYHQQNLFEFLEHHHHHH”, for which the protein production result is given as “failed”.
